# The DeepSol protein solubility set
# Experiment: soluble on expression in E. coli; label from the status in PepcDB or PDB records
row,Sequence,soluble on expression in E. coli
1,MSIKFELIDVPIPQGTNVIIGQAHFIKTVEDLYEALVTSVPGVKFGIAFCEASGKRLVRHEANDEELRNLAIDLCKKIAAGHVFVIYIRNAWPINVLNAIKNVPEVVRIFAATANPLKVIVAEVEPERRGVVGVVDGHSPLGVETEKDREERKKFLREVVKYKL,soluble
2,MGINVRAVEIQDARAIHRICIQDNVLPYMVFLPSMRVEAMENRIRNLAPNQFEFVAEYDGEVVGFVGLTQSPGRRSHSGDLFIGVDSEYHNKGIGRALLTKMLDLADNWLMLERVELGVLETNPKAKALYEKFGFVEEGVKIGNLKAHGKFINEIMMSRFRPNGLIVHNE,not soluble
3,MNQLLINKHEKFFNRCLIGLPSTAQSEDSNKLAIIYFCLHGLQLIQKFQFTNQELIYYRNFIINQFMIENNQIISFRSTHYFQKTNQKYDCPNLSSTLFALYNLLILKSPYHTIINRKKIMNFLCKCQVKDGINKGGFVPTLYYNEENGDYKQYGEPDLRVCYMALLIRHLMKYDDNNNNNNREDSNETDIDLISLQQFILDRININGGFSSTIMDESHLGFTFCAIASLKLLNYPLEKLKSTKEWLIHRQVDYPENLYPKDGNGDGNGNGDNYEYYRNIDIGGFNGRENKLSDTCYSWWCTGSLYNIDVNFIKLVDLNKAEDYLLNKTQNQLFGGFGRDPDSTPDPMHSYLALASLSLWNHEKFALQEINPILTITKESYQFFKEEIKY,soluble
4,MGSDKIHHHHHHMKNNTGYIIGAYPCAPSFHQKSEEEETEFWRQLSDTPDIRGLEQPCLEHLHPLGDEWLLRHTPGNWQIVVTAIMETMRRRSENGGFGLASSDEEQRKACVEYYRHLYQKINKINGNNTGKVIALELHAAPLAGNPNVAQATDAFARSLKEIANWDWSCDLVLEHCDAMTGPAPRKGFLPLVNVLETIADYDISVCINWARSAIEGRDTSLPLIHTQQAKQAGKLGALMFSGTTLDGEYGEWQDLHAPFAPFCPQSLMTEKHVKELITAAAPELLQFTGIKLLEINASADINHRINILRDGINMMKKATRR,not soluble
5,MIRPKPIAFEQPQTMPSILYPIHPPFRREELVTPTRENQIFKELLISISIYNSGEERLERITRPPLMASIPNGRFYNCRVRSSGSKTKAIFQQFKISVCSRE,not soluble
6,MSSGSAGAPALSNNSTNSVAKEKSGNISGDEYLSQEEEVFDGNDIENNETKVYEESLDLDLERSNRQVWLVRLPMFLAEKWRDRNNLHGQELGKIRINKDGSKITLLLNENDNDSIPHEYDLELTKKVVENEYVFTEQNLKKYQQRKKELEADPEKQRQAYLKKQEREEELKKKQQQQKRRNNRKKFNHRVMTDRDGRDRYIPYVKTIPKKTAIVGTVCHECQVMPSMNDPNYHKIVEQRRNIVKLNNKERITTLDETVGVTMSHTGMSMRSDNSNFLKVGREKAKSNIKSIRMPKKEILDYLFKLFDEYDYWSLKGLKERTRQPEAHLKECLDKVATLVKKGPYAFKYTLRPEYKKLKEEERKATLGELADEQTGSAGDNAQGDAEADLEDEIEMEDVV,soluble
7,MGSDKIHHHHHHMNILITGMAGFIGHAVAKRLAAEGHDIVGIDNLNDYYDVSLKQARLDDLAAWPNVRFERLDLADRAGMERLFADTRFERVIHLAAQAGVRYSLDNPHVYAQSNLVGHLNVLEGCRHQQVPHLIYASSSSVYGQNAQVPFSTADAVDHPISLYAATKKANELMTHSYSHLYGIPATGLRFFTVYGPWGRPDMAMFKFTRAILADEPLPVFNHGDLSRDFTYIDDIVEGVVRIMQAIPEADPDSPGASPDQSTAPFALYNIGHGSPVALMDFVHALERATGRTARCDFKPMQPGDVPRTWADTDALFEKVGYRPQVGVDEGVARFVEWYRSFHGI,not soluble
8,MGHHHHHHSHDSKACISIGNQNFEVKADDLEPIMELGRGAYGVVEKMRHVPSGQIMAVKRIRATVNSQEQKRLLMDLDISMRTVDCPFTVTFYGALFREGDVWICMELMDTSLDKFYKQVIDKGQTIPEDILGKIAVSIVKALEHLHSKLSVIHRDVKPSNVLINALGQVKMCDFGISGYLVDSVAKTIDAGCKPYMAPERINPELNQKGYSVKSDIWSLGITMIELAILRFPYDSWGTPFQQLKQVVEEPSPQLPADKFSAEFVDFTSQCLKKNSKERPTYPELMQHPFFTLHESKGTDVASFVKLILGD,not soluble
9,MSHVSTLRRALLGALLLAPAAALANTPIPIDVWRTPTCGCCEDWLQHLRSNGFEVRAHMVEDTAPVRSQAGMPARYGSCHTARVQGYTVEGHVPAADIRRLLRDKPRAVGLTAPGMPIGSPGMDGPAYGGRRDAYDVLLVQPDGSARVFQAYR,not soluble
